# According to patent publication US7772181B2, “Personal care compositions comprising modified variant Bowman Birk Protease Inhibitors” (Danisco US Inc., priority 2008, dated 2010):
# Changes are numbered by the printed parent chain. Names may count otherwise.
# T1: bovine pancreatic trypsin (Bos taurus, UniProt P00760)
# T1 construct: purchased Worthington (Worthington Biochemical Corp.)
# T1 sequence (P00760 24-246): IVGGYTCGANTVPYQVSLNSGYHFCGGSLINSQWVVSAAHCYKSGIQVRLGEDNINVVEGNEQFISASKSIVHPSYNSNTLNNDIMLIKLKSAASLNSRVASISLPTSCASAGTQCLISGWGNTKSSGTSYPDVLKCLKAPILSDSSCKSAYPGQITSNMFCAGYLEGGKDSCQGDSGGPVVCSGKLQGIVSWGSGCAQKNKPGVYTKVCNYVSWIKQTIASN
# B1: BBIt-AV-4D13 insert -A13I-L29P-A40K-F50T-V52A: modified variant BBPI, SEQ ID NO:413 (protein)
# chain: DPDDEPSKPCCDPDPDDESSKPCCDQCICTKSNPPQCRCSDMRPNSCHSACKSCKCYNLYGWTCTCADITDFCYEPCKPSE
# modifications: synthetic BBPI sequence
# B2: BBIt-AV-A13I-M27R-L29P-A40K-F50T-V52A: modified variant BBPI, SEQ ID NO:619 (protein)
# chain: DPDDESSKPCCDQCICTKSNPPQCRCSDRRPNSCHSACKSCKCYNLYGWTCTCADITDFCYEPCKPSE
# modifications: synthetic BBPI variant
# B3: BBIt-AV-A13I-L29P-S31A-A40K-F50T-V52A: modified variant BBPI, SEQ ID NO:621 (protein)
# chain: B2 chain with R29M, S33A
# modifications: synthetic BBPI variant
# B4: BBIt-AV-A13I-S25R-L29P-S31R-A40K-F50T-V52A: modified variant BBPI, SEQ ID NO:618 (protein)
# chain: B2 chain with S27R, R29M, S33R
# modifications: synthetic BBPI variant
# B5: BBIt-AV-A13I-S25R-L29P-S31A-A40K-F50T-V52A: modified variant BBPI, SEQ ID NO:617 (protein)
# chain: B2 chain with S27R, R29M, S33A
# modifications: synthetic BBPI variant
# B6: BBIt-AV-S4V-A13I-L29P-A40K-F50T-V52A: modified variant BBPI, SEQ ID NO:612 (protein)
# chain: B2 chain with S6V, R29M
# modifications: synthetic BBPI variant
# B7: BBIt-AV-A13I-L29K-A40K-F50T-V52A: modified variant BBPI, SEQ ID NO:620 (protein)
# chain: B2 chain with R29M, P31K
# modifications: synthetic BBPI variant
# B8: BBIt-AV-A13I-S25R-L29P-A40K-F50T-V52A: modified variant BBPI, SEQ ID NO:616 (protein)
# chain: B2 chain with S27R, R29M
# modifications: synthetic BBPI variant
# B9: BBIt-AV-A13L-L29P-A40K-F50T-V52A: modified variant BBPI, SEQ ID NO:615 (protein)
# chain: B2 chain with I15L, R29M
# modifications: synthetic BBPI variant
# B10: BBIt-AV-Q11G-A13I-L29P-A40K-F50T-V52A: modified variant BBPI, SEQ ID NO:614 (protein)
# chain: B2 chain with Q13G, R29M
# modifications: synthetic BBPI variant
# B11: BBIt-AV-A13I-L29P-A40K-F50K-V52A: modified variant BBPI, SEQ ID NO:624 (protein)
# chain: B2 chain with R29M, T52K
# modifications: synthetic BBPI variant
# B12: BBIt-AV-S5P-A13I-L29P-A40K-F50T-V52A: modified variant BBPI, SEQ ID NO:613 (protein)
# chain: B2 chain with S7P, R29M
# modifications: synthetic BBPI variant
# B13: BBIt-AV-A13I-L29P-A40K-F50T-V52T: modified variant BBPI, SEQ ID NO:625 (protein)
# chain: B2 chain with R29M, A54T
# modifications: synthetic BBPI variant
# B14: BBIt-AV-A13I-L29P-S31R-A40K-F50T-V52A: modified variant BBPI, SEQ ID NO:622 (protein)
# chain: B2 chain with R29M, S33R
# modifications: synthetic BBPI variant
# B15: BBItc-AV: BBtc with CK37281 replacing the second protease inhibitory loop, SEQ ID NO:454 (protein)
# chain: DPSSKWEACCDRCACTKSIPPQCHCADIRLNSCHSACESCACYNLYGWTCRCFDITDFCYKPCSG
# modifications: synthetic BBtc-AV sequence
# B16: BBIsb3-AV: BBsb3 with CK37281 replacing the second protease inhibitory loop, SEQ ID NO:453 (protein)
# chain: DPDDEYSKPCCDLCMCTRSMPPQCSCEDIRLNSCHSDCKSCACYNLYGWTCRCLDTNDFCYKPCKSRDD
# modifications: synthetic BBsb3-AV sequence
# B17: BBIdb-AV: BBdb with CK37281 replacing the second protease inhibitory loop, SEQ ID NO:452 (protein)
# chain: DPSESSKPCCDQCACTKSIPPQCRCTDVRLNSCHSACSSCACYNLYGWTCVCVDMKDFCYEPCK
# modifications: synthetic BBdb-AV sequence
# B18: 4D13BBIt-AV: BBIt-AV with 13 amino acid 4D13 insert (SEQ ID NO:389) at the N-terminus, SEQ ID NO:390 (protein)
# chain: DDEPSKPCCDPDPDDESSKPCCDQCACTKSNPPQCRCSDMRLNSCHSACKSCACYNLYGWTCFCVDITDFCYEPCKPSE
# modifications: synthetic BBI sequence
# Molecular target: T1, bovine pancreatic trypsin
# Assay: Shake flask screen: trypsin inhibition after growth, 2-mercaptoethanol activation and acid/heat treatment
# Format: biochemical
# Settings: not given
# Method: To increase expression, the gene copy of the selected clones was amplified by sequentially streaking colonies on Luria agar plates with 25 μg/ml chloramphenicol until the growth rate was similar to growth on Luria agar plates without chloramphenicol. Cultures of the selected variants and controls were grown in 3 ml Luria broth with 25 μg/ml chloramphenicol in 15 ml tubes for ˜10 h. These cultures (30 μl) were then used to inoculate 30 ml of MBD medium in 250 ml baffled shake flasks and grown at 37° C. and 225 rpm for ˜60 h.
# For selection of the variants with the best yields, the culture broths were processed as follows. The broth was first activated by mixing 20 ml of broth with 20 ml of 0.25 M glycine buffer (pH 9.3) and the pH was adjusted to 9.0 with 50% NaOH. Then, 2-mercaptoethanol was added to the diluted cultures to a final concentration of 2 mM and the cultures were incubated overnight at room temperature with gentle shaking. The BBIt-AV moiety was then cleaved from the fusion protein by acid/heat treatment, which was accomplished by first adjusting the pH of the activated broth to pH 1.9-2.0 with sulfuric acid, and followed by incubation at 60° C. for 16 hours, with shaking. The BBIt-AV-BCE fusion protein and the BCE catalytic domain are not soluble at pH 2, whereas the free BBI species is soluble. After the cleavage reaction, the insoluble material was removed by centrifugation (5 min. at 3,000 rpm) and the supernatant was analyzed for trypsin inhibitory activity as described above. The BBI activity was also determined for the starting material and for the samples taken after activation. The BCE activity of the starting material was also determined as described above. The BBIt-AV:BCE activity ratios were then calculated for each step in process. The modified BBIt-AVs produced at the highest yields following the acid/heat treatment were selected for further study.
row,yield after acid/heat treatment relative to BBIt-AV-A13I-L29P-A40K-F50T-V52A (SEQ ID NO:601),Molecule
1,slightly better yields,B1
2,somewhat less,B2
3,somewhat less,B3
4,significantly better yields,B4
5,significantly better yields,B5
6,significantly lower yields,B6
7,significantly lower yields,B7
8,significantly better yields,B8
9,slightly better yields,B9
10,significantly lower yields,B10
11,slightly better yields,B11
12,significantly lower yields,B12
13,somewhat less,B13
14,significantly better yields,B14

# Same assay, conditions: alternative scaffolds
activation with reducing agent,Molecule,inhibitory activities after acid/heat treatment relative to BBIt-AV
–,B15,higher inhibitory activities after acid/heat treatment
did not activate with reducing agent,B16,–
–,B17,higher inhibitory activities after acid/heat treatment

# Same assay, conditions: alternative scaffolds compared with BBIt-AV
row,Molecule,trypsin inhibitory activity after activation
1,B15,highest trypsin inhibitory activity after activation
2,B16,very low trypsin inhibitory activity
3,B17,greater than that of the BBIt-AV inhibitor but less than that of the BBItc-AV inhibitor

# Same assay, conditions: relative to unmodified BBIt-AV
row,BBIt-AV:BCE activity ratio after acid/heat treatment,Molecule
1,higher,B18
